B1: guide + t1A target (dsRNA)
RNA 1: UUCACAUUGCCCAAGUCUCUU
RNA 2: CAAUGUGAAAA
modifications: 5'-phosphate on guide
B2: guide + t1DAP target (dsRNA)
RNA 1: UUCACAUUGCCCAAGUCUCUU
RNA 2: CAAUGUGAAAA
modifications: 5'-phosphate on guide; target nt 9 = 2,6-diaminopurine (written A)
B3: guide + t1m6A target (dsRNA)
RNA 1: UUCACAUUGCCCAAGUCUCUU
RNA 2: CAAUGUGAAAA
modifications: 5'-phosphate on guide; target nt 9 = N6-methyladenosine (written A)
B4: guide + t1C target (dsRNA)
RNA 1: UUCACAUUGCCCAAGUCUCUU
RNA 2: CAAUGUGACAA
modifications: 5'-phosphate on guide
B5: guide + t1G target (dsRNA)
RNA 1: UUCACAUUGCCCAAGUCUCUU
RNA 2: CAAUGUGAGAA
modifications: 5'-phosphate on guide
B6: guide + t1U target (dsRNA)
RNA 1: UUCACAUUGCCCAAGUCUCUU
RNA 2: CAAUGUGAUAA
modifications: 5'-phosphate on guide

biological target: Ago2 wild type (Homo sapiens, UniProt Q9UKV8 1-859); assay: filter binding; guide-loaded Ago2; target Kd; Filter binding: 30 mM Tris pH 8.0, 0.1 M K acetate, 2 mM Mg acetate, 0.5 mM TCEP, 0.005% NP-40, 0.01 mg/ml yeast tRNA, room temp, 45 min, 0.1 nM target; smFRET: 50 mM Tris pH 8.0, 50 mM NaCl, 60 mM KCl (RISC assembly buffer), 23 C; settings: protein: recombinant; tags: His6; guide g2-g9 pairs target nt 1-8; 3' overhangs; t1 = target nt 9
Sequence (Q9UKV8 whole entry): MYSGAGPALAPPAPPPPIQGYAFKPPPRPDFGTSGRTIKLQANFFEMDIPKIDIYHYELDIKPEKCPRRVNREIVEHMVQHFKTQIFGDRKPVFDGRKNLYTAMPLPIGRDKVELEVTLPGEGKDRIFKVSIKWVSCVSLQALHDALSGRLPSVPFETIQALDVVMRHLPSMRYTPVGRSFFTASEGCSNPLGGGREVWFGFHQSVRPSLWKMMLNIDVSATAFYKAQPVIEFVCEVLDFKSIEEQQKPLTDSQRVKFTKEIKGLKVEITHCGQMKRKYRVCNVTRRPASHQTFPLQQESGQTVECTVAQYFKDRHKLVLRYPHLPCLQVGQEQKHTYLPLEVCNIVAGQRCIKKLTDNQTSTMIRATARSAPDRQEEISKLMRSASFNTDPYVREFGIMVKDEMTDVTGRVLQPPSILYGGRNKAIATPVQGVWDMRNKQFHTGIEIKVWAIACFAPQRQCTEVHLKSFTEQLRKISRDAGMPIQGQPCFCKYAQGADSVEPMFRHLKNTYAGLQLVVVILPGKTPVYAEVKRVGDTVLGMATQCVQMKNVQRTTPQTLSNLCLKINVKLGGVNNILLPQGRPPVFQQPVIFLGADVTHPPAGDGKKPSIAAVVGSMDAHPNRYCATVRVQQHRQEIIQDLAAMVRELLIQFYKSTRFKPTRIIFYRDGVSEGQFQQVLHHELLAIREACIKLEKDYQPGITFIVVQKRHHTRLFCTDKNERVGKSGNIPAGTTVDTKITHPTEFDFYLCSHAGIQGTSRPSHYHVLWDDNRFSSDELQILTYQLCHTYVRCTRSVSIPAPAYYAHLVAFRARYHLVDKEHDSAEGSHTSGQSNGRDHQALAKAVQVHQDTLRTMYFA

Row | Binder | Kd [nM]
1 | B1 | 0.75 ± 0.04
2 | B2 | 0.45 ± 0.03
3 | B3 | 1.8 ± 0.12
4 | B4 | 1.8 ± 0.12
5 | B5 | 1.9 ± 0.09
6 | B6 | 1.9 ± 0.1

biological target: Ago2 A481T (Homo sapiens, UniProt Q9UKV8 1-859, A481T); assay: as above; settings: protein: recombinant; tags: His6; guide g2-g9 pairs target nt 1-8; 3' overhangs; t1 = target nt 9
Sequence (Q9UKV8 whole entry A481T): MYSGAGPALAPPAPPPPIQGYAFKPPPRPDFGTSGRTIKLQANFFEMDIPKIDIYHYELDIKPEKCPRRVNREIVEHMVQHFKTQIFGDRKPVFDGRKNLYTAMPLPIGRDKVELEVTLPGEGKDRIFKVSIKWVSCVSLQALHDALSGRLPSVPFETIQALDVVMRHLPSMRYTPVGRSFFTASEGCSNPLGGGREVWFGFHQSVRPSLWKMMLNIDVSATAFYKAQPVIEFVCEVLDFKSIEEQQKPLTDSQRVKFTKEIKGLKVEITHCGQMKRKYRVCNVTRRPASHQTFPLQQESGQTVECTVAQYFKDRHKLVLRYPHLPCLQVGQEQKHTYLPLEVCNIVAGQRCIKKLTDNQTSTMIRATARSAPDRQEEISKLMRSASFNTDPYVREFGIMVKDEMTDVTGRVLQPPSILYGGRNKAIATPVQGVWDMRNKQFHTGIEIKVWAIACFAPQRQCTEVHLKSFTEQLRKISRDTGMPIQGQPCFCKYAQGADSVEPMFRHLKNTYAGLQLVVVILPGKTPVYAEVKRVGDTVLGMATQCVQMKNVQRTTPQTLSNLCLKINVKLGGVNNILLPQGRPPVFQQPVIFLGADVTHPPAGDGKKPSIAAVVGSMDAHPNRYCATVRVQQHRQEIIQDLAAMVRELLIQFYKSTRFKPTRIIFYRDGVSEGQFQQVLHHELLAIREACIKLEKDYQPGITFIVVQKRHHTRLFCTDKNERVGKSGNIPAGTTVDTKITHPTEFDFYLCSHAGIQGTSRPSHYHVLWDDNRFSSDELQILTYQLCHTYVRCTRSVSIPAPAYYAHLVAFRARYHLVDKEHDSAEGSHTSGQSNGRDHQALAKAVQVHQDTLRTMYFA

Row | Binder | Kd [nM]
7 | B1 | 1.5 ± 0.13
8 | B5 | 1.8 ± 0.11

From publication PMC4606517, “Water-mediated recognition of t1-adenosine anchors Argonaute2 to microRNA targets”
